The assay has as its target recombinant SARS-CoV-2 spike protein (S1S2ECD-His; Sino Biological) (SARS-CoV-2) (UniProt P0DTC2).

A word on the Kd: it is the equilibrium constant for the complex coming apart. As for “heat-inactivated recombinant human rod domain of vimentin (ΔrhRod) (from UniProt P08670 96-407)”, the Kd was 1100 nM.

The values are drawn from US20230355711A1.
